Data reported in the supplement of paper PMC9170038.

Test system: MS2 coat protein
Assay: apparent KD of MS2 coat protein; higher = weaker reporter binding
Conditions: Eterna round: R107
Protocol: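 RNA-MaP round R107: designed RNA switches with theophylline, tryptophan, arginine or FMN aptamers are transcribed on-chip within common flanks. They are titrated with SNAP-549-labelled MS2 coat protein in RNA-MaP buffer (100 mM Tris pH 7.5, 80 mM KCl, 4 mM MgCl2), without ligand or with the indicated ligand. Median apparent KD per design.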

[1] = input ligand: theophylline 20 uM
[2] = input ligand: tryptophan 2.4 mM
[3] = input ligand: theophylline 2 mM

Row | Sequence | apparent KD of MS2 coat protein (input ligand: arginine 13.2 mM) | apparent KD of MS2 coat protein [1] | apparent KD of MS2 coat protein [2] | apparent KD of MS2 coat protein (input ligand: none) | apparent KD of MS2 coat protein [3]
1 | AUAGUCUUGAGUGAUACCAGACUACAUGAGGAUCACCCAUGUUUCUUUUGGUUAUCAUGUGUCCCUUGGCAGCACGCAUGUAUAG [JR_ExcTheophyB_Sub014] | 17.5 nM | 28 nM | 12.6 nM |  | 
2 | AUAUGGCGAGAUGAUACCAGACACAUGAGGAUCACCCAUGUUGAUGGUAAGUCUGCAUAUGUCCCUUGGCAGCAUAGCGACAUAU [X-TheoB-ms2@23] | 8.63 nM | 11.9 nM | 8.34 nM |  | 
3 | AUAUUAAAGAGUGAUACCAGACUACAUGAGGAUCACCCAUGUUACAUUUAAAUAUCAUUUGUCCCUUGGCAGCACAUUAAGUACA [JR_Nu_ExcTheophyB_Sub022] | 20.9 nM | 22.1 nM | 17.5 nM |  | 
4 | AUCAUGUAAUCAGAUACCAGACAUCUUUUAAUACAUAUUACAUGAGGAUCACCCAUGUUGGUCCCUUGGCAGCUGAAAUAUUUUU [JR_Nu_SSTheophyB_Sub027] | 128 nM | 191 nM | 246 nM |  | 
5 | AUCGGCAGAAAAGAUACCAGAGUAAUACACAACAUGAGGAUCACCCAUGUACGGACAAUCCUCCCUUGGCAGCUUGUAACAGUAU [theeternabot_sameState_MS2_Theo_B_32] | 37.4 nM | 63.8 nM | 48 nM |  | 
6 | AUCGUACCUGAUGAUACCAGCAAGUGAUCAUAACAUGAGGAUCACCCAUGUAAUCAGUGAUGCCCUUGGCAGCAUAAUCGAUACA [Same State - Theophylline B (Freestyle 4)] | 91.6 nM | 204 nM | 164 nM |  | 
7 | AUCGUACCUGAUGAUACCAGCAUGUGCUCGUAACAUGAGGAUCACCCAUGUGAUCAGUGAUGCCCUUGGCAGCAUGAUCGGUGCA [Same State - Theophylline B (Freestyle 18)] | 94 nM | 134 nM | 167 nM |  | 
8 | AUGCAUAGCCGAAGGAGCGCAGUAGGAUGACAUGAGGAUCACCCAUGUGUGUGAUGUGGAUUGCAGGUAGGUCGCGGAGUGGUAU [Exclusion - Arginine B (Freestyle 5)] | 47 nM | 128 nM | 58 nM | 119 nM | 119 nM
9 | AUGGCGUUGGUGUAGCUGUGAAAUGGCGAUACCAGCGUGGAAACACGCCCUUGGCAGCGCCAAAACAUGAGGAUCACCCAUGUUA [Hradec] | 16.6 nM | 45.1 nM | 18.1 nM |  | 
10 | AUGGUAGGACAGCACAUAUAAGCUUGUGAUACCAGCUAGAAAACUAGCCCUUGGCAGCACAUUACAUGAGGAUCACCCAUGUCCC [EThA NP+V+V2 #1] | 44.1 nM | 68.6 nM | 50 nM |  | 
11 | AUGUCAUUGGUGUAGCUGUGAAAUGGCGAUACCAGCGUGGAAACACGCCCUUGGCAGCGCCAAAACAUGAGGAUCACCCAUGUUA [Pardubice] | 36.2 nM | 135 nM | 80 nM |  | 
12 | AUUAAUAAUAUGUAGACGGCGGAGAAGAGACGAGGACCGGUACGGCCGCCACUCGUGUUAGUUAACAUGAGGAUCACCCAUGUUA [#09 Tryptophan A Same State] | 9.55 nM | 17.5 nM | 11.9 nM | 11.8 nM | 12.6 nM
13 | AUUCAUGGAAACAUGACAUACAUAUCCGGUCGAGGACCGGUACGGCCGCCACUCGUUUGGAGGCACAUGAGGAUCACCCAUGUUA [SS Tryp A #8] | 21.3 nM | 34.4 nM |  |  | 25.9 nM
14 | AUUCCAUUGGUGCAGUUGUUAAAUGGCGAUACCAGCGUGGAAACACGCCCUUGGCAGCGCCAAAACAUGAGGAUCACCCAUGUUA [Havirov] | 32.1 nM | 70.5 nM | 59.1 nM |  | 
15 | AUUCUUUACUGAAGGAGCGUCAUUCUUACAUGAGGAUCACCCAUGUUUAUUCUUUAUGAUUGACAGGUAGGUCGCAGAUUUUUUA [#11 Same State - Arginine B] | 19.5 nM | 24.4 nM | 17 nM | 17.8 nM | 19 nM
16 | CAAUACGUAACUGAUACCAGUGUACUGACAUGAGGAUCACCCAUGUUGGGUUUUGUUGUACACCCUUGGCAGCAGAAUCGUAUUG [AstrosExyTheB#11] | 46.7 nM | 79.4 nM | 66.3 nM |  | 
17 | CACAUGAGGAUCACCCAUGUCUGAACUGAAGGAGCGCUAAAUAAGGCAGGUAGGUCGCGGAAUCGUGUGUGCAUAUGCACACGCG [9.U] | 17.8 nM | 35.7 nM | 18 nM | 24 nM | 25.3 nM
18 | CAUGUGAAAAUAAGAAGAAGAAGAAUAAAUCGAGGACCGGUACGGCCGCCACUCGUCGAAUCACAUGAGGAUCACCCAUGUAGCC [Tryptofun] | 26.3 nM | 52.6 nM |  |  | 69 nM
19 | CCAUAGCUAGGAAGGAGCGCAUACUUCACAUGAGGAUCACCCAUGUCGAGACGUGAGUCAGUGCAGGUAGGUCGCCUAGCUAUGG [Same State - Arginine B (Freestyle 29)] | 18.1 nM | 24.2 nM | 20.6 nM | 18.6 nM | 25.5 nM

Row | Sequence | apparent KD of MS2 coat protein (input ligand: arginine 13.2 mM) | apparent KD of MS2 coat protein [1] | apparent KD of MS2 coat protein [2] | apparent KD of MS2 coat protein (input ligand: none) | apparent KD of MS2 coat protein [3]
20 | CCCAAUUUCCGAGAUAUGGGUCCAACUAAACGAGGACCGGUACGGCCGCCACUCGACUACAAACAUGAGGAUCACCCAUGUAAAG [theeternabot_exclusion_MS2_Trp_A_40] | 17.6 nM | 20 nM |  |  | 19.8 nM
21 | CCCUCCAGAACGGCCGCCACUAAAGGGUUGUGUGCGACUCCGGAACAUGAGGAUCACCCAUGUCUUAGGACCGGGUUCCCUUCUA [theeternabot_sameState_MS2_Trp_B_30] | 58.9 nM | 81.9 nM |  |  | 82.2 nM
22 | CCGGCCAAUUAGAAAUUAAUUGGCCGGAAACGAGGACCGGUACGGCCGCCACUCGUGGCGGGAGAAACAUGAGGAUCACCCAUGU | 23 nM | 54.7 nM |  |  | 53 nM
23 | CCGGCCGCAUGAAGGAGCGCACAGCGCUCGCACAUGAGGAUCACCCAUGUAAAUGGGUGCGUGCAGGUAGGUCGCAUGCAGGCAA [Lesobete] | 133 nM | 544 nM | 472 nM | 313 nM | 671 nM
24 | CCGUUCUCUGCGGCCGCCACUCAAGGAGCUACAUAGCUCCUAGACAUGAGGAUCACCCAUGUCGCGAGGACCGGGUAGAUUCUCC [Same State Typptophan B GF9] | 34.4 nM | 63.6 nM |  |  | 64.2 nM
25 | CCUAUGCAGUCGGCCGCCACUGAUAAAAUUAUUUUUACCUCAGAAACAUGAGGAUCACCCAUGUACAGGACCGGGACUGUAUAGG [Ex Tryptophan B 17] | 24.2 nM | 20.1 nM |  |  | 22.8 nM
26 | CCUAUGCAGUCGGCCGCCACUGUACAUGAGGAUCACCCAUGUUCUAAUAUAAUAAGAACUGAAAUCAGGACCGGGACUGUAUAGG [Ex Tryptophan B 2] | 1660 nM | 27.8 nM | 19.3 nM | 20.1 nM | 19.7 nM
27 | CCUCAUGUGGUGCUGCACAUGAGAGGUGAUACCAGCAUCGAAAGAUGCCCUUGGCAGCACCAACAUGAGGAUCACCCAUGUAAUA [(M)'-(T)'-(M)''-(T1)-(T2)-(M1)-(M2)_Design1] | 27 nM | 94 nM | 25 nM |  | 
28 | CCUGCGUUUCUUUUCUUUCGCAGGAAUGAUACCAGUAGGGAAACCUACCCUUGGCAGCAUGGGACAUGAGGAUCACCCAUGUAAU [SSThA NP+V+V2 #2] | 255 nM | 346 nM | 408 nM |  | 
29 | CCUUUUAUUAAUGAUACCAGCGUAUUAAGCAUCACCUUGGACAUGAGGAUCACCCAUGUACGCCCUUGGCAGCAUACCACUGGGU [theeternabot_exclusion_MS2_Theo_B_5] | 35.7 nM | 52.2 nM | 34.7 nM |  | 
30 | CGACACCAGGCAAUCCAUCACCCGGCUGAUACCAGCUCUUUUGGAAGCCCUUGGCAGCAGAGAACAUGAGGAUCACCCAUGUCAG [theeternabot_exclusion_MS2_Theo_A_18] | 14.5 nM | 16.7 nM | 17 nM |  | 
31 | CGACGAUACCUGGAUACCAGCGACAUGAGGAUCACCCAUGUAUGUGGAUCAGCCAUGAUAUGCCCUUGGCAGCCACCAAAGUCGG [IIIMULLIN] | 17 nM | 24.1 nM | 14.3 nM |  | 
32 | CGAGUAAGUUCAAUCGAAUAACGGUUUUCGCGAGGACCGGUACGGCCGCCACUCGUGUGAUAUCACACAUGAGGAUCACCCAUGU [3'end-1] | 42.7 nM | 77.1 nM |  |  | 135 nM
33 | CGAUAGGGUCAAUACCUAAUCAUAUCUGAAGGAGCGUGGAUAUACACAGGUAGGUCGCAGAAUCACAUGAGGAUCACCCAUGUCC [Same State Arginine A GF13] | 60.2 nM | 127 nM | 96.5 nM | 102 nM | 154 nM
34 | CGCAACCCUAAGGGAUUGUGGUUAUUAGAUACCAGUAUGAUGCAAUACCCUUGGCAGCUAAUACAUGAGGAUCACCCAUGUUGCG [Th A Ex t2] | 13.6 nM | 20.2 nM | 16.8 nM |  | 
35 | CGCCACAUGAGGAUCACCCAUGUAAUGGCGCGAGGACCGGUACGGCCGCCACUCGCCUGGCAGUGAGCGCAUGCGGCCUGGGUAU [Exclusion Tryp A GF9] | 12.2 nM | 13.3 nM | 13.3 nM | 10.6 nM | 14.4 nM
36 | CGGACAUGAGGAUCACCCAUGUACACUGAAGGAGCGUCGAGAACGACAGGUAGGUCGCAGGUUGAGGAUGGUGAUGCUCAGGUAG [Exclusion Arginine A GF 3] | 37.1 nM | 64.7 nM | 14.3 nM | 39.2 nM | 15.8 nM
37 | CGGACAUGAGGAUCACCCAUGUCGUCGACGCGAGGACCGGUACGGCCGCCACUCGCAUGCCAAUGAGCGCAUGCGGCCUGGGUAU [Exclusion Tryp A GF5] | 15.8 nM | 29 nM |  | 19.5 nM | 21 nM
